What was measured:
DPP8/V5/His (human) = DPP8/V5/His (human) (UniProt Q6V1X1); assay: cell-based or functional assay
DPPIV/V5/His (human) = DPPIV/V5/His (human) (UniProt P27487); assay: cell-based or functional assay
Chain of DPPIV/V5/His (human) (P27487 whole entry, form in doubt): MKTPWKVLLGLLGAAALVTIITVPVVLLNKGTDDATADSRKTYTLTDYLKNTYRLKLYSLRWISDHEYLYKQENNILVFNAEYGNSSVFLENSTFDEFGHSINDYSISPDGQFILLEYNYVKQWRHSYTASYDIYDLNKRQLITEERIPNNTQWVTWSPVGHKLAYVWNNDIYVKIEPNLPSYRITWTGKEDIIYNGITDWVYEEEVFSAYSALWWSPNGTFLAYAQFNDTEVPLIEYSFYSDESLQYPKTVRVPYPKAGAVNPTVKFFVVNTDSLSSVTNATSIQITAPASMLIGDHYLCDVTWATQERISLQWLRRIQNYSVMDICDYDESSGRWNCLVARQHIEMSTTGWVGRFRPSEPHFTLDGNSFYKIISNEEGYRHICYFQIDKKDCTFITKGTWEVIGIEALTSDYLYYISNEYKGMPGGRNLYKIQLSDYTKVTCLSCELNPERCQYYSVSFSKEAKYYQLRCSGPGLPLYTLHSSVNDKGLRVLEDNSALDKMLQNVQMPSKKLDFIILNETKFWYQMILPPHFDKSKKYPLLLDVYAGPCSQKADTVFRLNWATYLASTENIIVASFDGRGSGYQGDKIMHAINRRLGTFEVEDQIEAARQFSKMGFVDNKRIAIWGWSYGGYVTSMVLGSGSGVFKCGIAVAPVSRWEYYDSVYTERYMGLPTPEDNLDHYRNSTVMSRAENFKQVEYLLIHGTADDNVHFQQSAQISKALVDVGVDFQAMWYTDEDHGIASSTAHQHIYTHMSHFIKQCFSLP

Chain of DPP8/V5/His (human) (Q6V1X1 17-898): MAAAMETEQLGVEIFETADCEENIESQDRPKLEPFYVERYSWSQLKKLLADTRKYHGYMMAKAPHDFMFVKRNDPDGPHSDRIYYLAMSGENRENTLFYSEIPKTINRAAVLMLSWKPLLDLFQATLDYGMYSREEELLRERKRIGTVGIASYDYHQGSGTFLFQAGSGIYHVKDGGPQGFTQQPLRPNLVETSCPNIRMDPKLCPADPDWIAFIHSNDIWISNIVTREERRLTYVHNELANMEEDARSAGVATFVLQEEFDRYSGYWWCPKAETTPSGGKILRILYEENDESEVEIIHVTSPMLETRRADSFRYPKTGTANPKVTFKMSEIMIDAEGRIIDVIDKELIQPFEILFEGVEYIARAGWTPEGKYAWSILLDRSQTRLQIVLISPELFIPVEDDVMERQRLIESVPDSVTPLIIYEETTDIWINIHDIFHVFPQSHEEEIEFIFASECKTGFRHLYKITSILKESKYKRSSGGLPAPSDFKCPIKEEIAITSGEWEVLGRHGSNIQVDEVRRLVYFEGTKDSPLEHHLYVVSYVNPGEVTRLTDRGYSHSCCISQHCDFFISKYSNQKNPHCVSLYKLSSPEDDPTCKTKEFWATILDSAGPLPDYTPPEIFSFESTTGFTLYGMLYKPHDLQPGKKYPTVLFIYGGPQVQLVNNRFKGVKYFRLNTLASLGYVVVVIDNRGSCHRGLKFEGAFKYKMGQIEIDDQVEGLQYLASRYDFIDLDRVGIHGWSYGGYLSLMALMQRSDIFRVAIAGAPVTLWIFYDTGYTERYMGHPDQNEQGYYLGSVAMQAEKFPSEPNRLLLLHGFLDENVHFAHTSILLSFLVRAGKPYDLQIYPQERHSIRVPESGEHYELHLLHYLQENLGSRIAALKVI

- Residual activity (% of control), H-Ala-Pro-pNA hydrolysis, peptide at 10 mM (DPP8/V5/His (human)): 51 % of control
- Residual activity (% of control), H-Gly-Pro-pNA hydrolysis, peptide at 10 mM (DPPIV/V5/His (human)): 67 % of control
Substance: Ala-Pro-Gly (peptide)

From patent publication US20040191826A1
